From publication PMC2791445, “A Novel Phase Variation Mechanism in the Meningococcus Driven by a Ligand-Responsive Repressor and Differential Spacing of Distal Promoter Elements” (PLoS Pathogens, 2009)

Target: the molecule itself
Test: cross-linking; in vitro cross-linking of purified NadR, cross-linked species resolved on SDS-PAGE; data not shown

B1: NadR transcriptional regulator protein (NMB1843) of Neisseria meningitidis MC58, recombinant with an N-terminal histidine tag (natural protein)
chain: MPTQSKHASINIGLIQAREALMTQFRPILNQANITDQQWRIIRLLAENGTLDFQDLANQACILRPSLTGILTRLEKAGLVVRLKPSNDQRRVFLKLTAEGEKLYEEIGEEVDERYDAIEEVLGREKMLLLKDLLAELAKIEDALNS
notes: NadR (NMB1843), MarR family transcriptional regulator, N. meningitidis MC58; gene amplified from the MC58 genome with primers 1843-F (at the ATG) and 1843-R (past the stop codon), cloned as a 448 bp NdeI-BamHI fragment into pET15b; also called 1843 protein
  stoichiometry N: 2
